Like-named read-outs stand apart in the source and are kept apart here.
Tests used:
[1] = biological target: TGF-β2 (Homo sapiens) (UniProt P61812); details: cited from earlier work
[2] = biological target: TGF-β1 (Homo sapiens) (UniProt P01137); details: cited from earlier work
[3] = biological target: TNF-α (Homo sapiens) (UniProt P01375); details: cited from earlier work
[4] = biological target: TGF-β1 (Homo sapiens) (UniProt P01137); details: cited from earlier work; remark: listed apart in the source
[5] = biological target: TGF-β2 (Homo sapiens) (UniProt P61812); details: cited from earlier work; remark: listed apart in the source
[6] = biological target: TNF-α (Homo sapiens) (UniProt P01375); details: cited from earlier work; remark: listed apart in the source
[7] = biological target: lipoprotein receptors (on SH-SY5Y cells) (human (endogenous in SH-SY5Y)); assay: flow cytometry on cells; SH-SY5Y cells detached with EDTA, in Hank's binding buffer, steps of 30 min at 4°C: RAP (8 μM) or buffer alone, then α2M (100 nM), rabbit anti-α2M, anti-rabbit IgG-FITC; viable cells gated by propidium iodide; α2M preparations stored at 4°C or -20°C for 10 days

Sequence of alpha-2-macroglobulin (transformed, α2M*) (P01023 24-1474): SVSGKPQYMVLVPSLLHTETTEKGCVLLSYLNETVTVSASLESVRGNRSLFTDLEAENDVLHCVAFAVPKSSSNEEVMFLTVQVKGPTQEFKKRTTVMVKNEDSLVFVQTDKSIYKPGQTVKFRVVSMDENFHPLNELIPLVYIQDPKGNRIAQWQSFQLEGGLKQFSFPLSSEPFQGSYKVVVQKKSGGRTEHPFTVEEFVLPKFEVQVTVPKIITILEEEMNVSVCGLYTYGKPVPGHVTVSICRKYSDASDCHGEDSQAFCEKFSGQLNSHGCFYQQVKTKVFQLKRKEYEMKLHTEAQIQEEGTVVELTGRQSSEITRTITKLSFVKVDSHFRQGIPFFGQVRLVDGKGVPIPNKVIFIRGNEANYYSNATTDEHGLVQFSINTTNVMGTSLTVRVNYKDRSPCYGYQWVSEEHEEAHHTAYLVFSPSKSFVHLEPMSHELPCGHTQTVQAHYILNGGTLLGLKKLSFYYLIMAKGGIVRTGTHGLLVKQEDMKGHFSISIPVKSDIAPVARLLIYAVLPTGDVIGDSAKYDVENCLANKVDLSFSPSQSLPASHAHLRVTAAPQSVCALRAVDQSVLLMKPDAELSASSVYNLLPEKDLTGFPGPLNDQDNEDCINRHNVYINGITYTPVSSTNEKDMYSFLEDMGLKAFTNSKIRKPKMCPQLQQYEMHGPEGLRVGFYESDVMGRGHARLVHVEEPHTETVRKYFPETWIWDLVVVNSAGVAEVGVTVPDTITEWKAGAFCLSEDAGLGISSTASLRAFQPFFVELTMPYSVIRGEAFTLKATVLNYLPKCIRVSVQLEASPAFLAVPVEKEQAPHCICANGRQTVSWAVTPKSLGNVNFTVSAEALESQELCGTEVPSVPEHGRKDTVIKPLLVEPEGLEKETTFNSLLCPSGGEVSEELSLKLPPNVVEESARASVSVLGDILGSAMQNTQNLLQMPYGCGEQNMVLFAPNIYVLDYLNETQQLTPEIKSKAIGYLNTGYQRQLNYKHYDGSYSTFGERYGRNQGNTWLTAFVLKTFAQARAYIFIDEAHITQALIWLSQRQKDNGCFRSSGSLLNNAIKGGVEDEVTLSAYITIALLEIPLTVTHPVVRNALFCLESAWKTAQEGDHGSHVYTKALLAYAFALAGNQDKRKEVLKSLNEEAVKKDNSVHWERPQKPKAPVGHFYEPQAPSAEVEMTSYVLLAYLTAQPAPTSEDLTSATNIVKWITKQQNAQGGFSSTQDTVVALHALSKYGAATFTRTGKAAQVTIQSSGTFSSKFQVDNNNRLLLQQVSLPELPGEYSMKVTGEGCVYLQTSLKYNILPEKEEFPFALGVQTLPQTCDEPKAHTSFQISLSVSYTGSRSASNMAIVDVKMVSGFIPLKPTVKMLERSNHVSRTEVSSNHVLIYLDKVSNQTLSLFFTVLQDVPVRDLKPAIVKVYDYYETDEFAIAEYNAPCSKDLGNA
Sequence of alpha-2-macroglobulin (native) (P01023 24-1474): as above
Sequence of glutathione-S-transferase-RAP (receptor-associated protein) (P30533 35-357): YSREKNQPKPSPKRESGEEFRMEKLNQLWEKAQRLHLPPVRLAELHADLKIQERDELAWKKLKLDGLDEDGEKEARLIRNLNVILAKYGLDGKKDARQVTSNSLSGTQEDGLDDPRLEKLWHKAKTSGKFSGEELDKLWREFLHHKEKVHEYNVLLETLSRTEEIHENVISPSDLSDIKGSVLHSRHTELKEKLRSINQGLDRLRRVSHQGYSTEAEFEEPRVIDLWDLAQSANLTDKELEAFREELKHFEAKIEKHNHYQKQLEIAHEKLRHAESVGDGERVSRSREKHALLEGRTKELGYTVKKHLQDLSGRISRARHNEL
Sequence of TGF-β2 (Homo sapiens) (P61812 303-414): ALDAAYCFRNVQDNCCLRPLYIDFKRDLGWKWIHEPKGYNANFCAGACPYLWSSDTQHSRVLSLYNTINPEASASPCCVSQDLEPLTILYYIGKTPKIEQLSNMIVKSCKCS
Sequence of TNF-α (Homo sapiens) (P01375 77-233): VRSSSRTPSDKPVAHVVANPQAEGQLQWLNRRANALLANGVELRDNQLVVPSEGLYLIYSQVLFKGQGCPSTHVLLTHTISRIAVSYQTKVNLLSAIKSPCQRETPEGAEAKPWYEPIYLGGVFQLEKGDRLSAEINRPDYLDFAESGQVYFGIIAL
Sequence of TGF-β1 (Homo sapiens) (P01137 279-390): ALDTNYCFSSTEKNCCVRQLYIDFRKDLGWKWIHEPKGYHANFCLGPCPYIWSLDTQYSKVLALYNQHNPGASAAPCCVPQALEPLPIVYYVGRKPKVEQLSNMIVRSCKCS

## alpha-2-macroglobulin (native) (from UniProt P01023)
[1]
  Kd: 11 nM
[2]
  Kd: 330 nM
[3]
  Kd: > 1270 nM

## alpha-2-macroglobulin (transformed, α2M*) (from UniProt P01023)
[4]
  Kd: 80 nM
[5]
  Kd: 13 nM
[6]
  Kd: > 750 nM

## glutathione-S-transferase-RAP (receptor-associated protein) (from UniProt P30533 35-357) (natural protein)
[7]
  percent of the cell surface binding of the frozen α2M preparations inhibited by RAP: 20 to 50%
  percent of the cell surface binding of α2M inhibited by RAP (α2M in PBS/Az at -20°C; α2M in phosphate buffer with 100 mM NaCl at -20°C after rapid freezing): 20%
